{"source": "paper PMC4641729", "about": "“NurA Is Endowed with Endo- and Exonuclease Activities that Are Modulated by HerA: New Insight into Their Role in DNA-End Processing” (PLoS ONE, 2015)", "binders": {"B1": {"name": "Sulfolobus solfataricus NurA (enzyme, UniProt Q97WH1 1-339, looked up)", "chain": "MIRKIYDKLVESHNEIKNQIYNIANYLKQEIQDKVNEYWNEYVINHEQSETCKFVAIDGGSFGRPMRIGIVYAVGAESVIGDNKGVKTLSEDGQIGIFKPGNDAQERISLLMEALELSLALRDGSKGDYILMDGSLSKKIGNKVDIQQFSDEELKLIRNVDLNGIISIKDERKMRDLLMLLNQFLVSKIIEEYDGNVLWISKVSRGRDLFGTDYPDITVLELFTEKRGFSKLIIKNIDIEKISEIPEIEVLRKMEYTTFYTRLDNGKRVIRVDIVGRVDEKIVKEIMDRLSGVSIKGYPFPLLKAHMDVRFSAMDREKIIKLVGSKLHKDIEWWPSQFY", "notes": "NurA nuclease, ORF SSO2248, Sulfolobus solfataricus strain P2; whole ORF amplified from genomic DNA with primers from the start codon to the stop codon, cloned NdeI/BamHI into pet29a; 39 kDa as monomer; Dimer in solution by gel filtration; Cloned at NdeI with its own stop codon, so probably untagged (surmise); also called SSO2248; NurAwt; source: E. coli BL21-CodonPlus(DE3)-RIL, purified (heat …)"}, "B2": {"name": "Sulfolobus solfataricus HerA (enzyme, UniProt Q97WG8 1-500, looked up)", "chain": "MIIGYVIGQATTQEALILAERPVRLGTYVVLEYDNVKALGLITNVTRGSPMLDDNMNDIEIVQRLKQFNNSIPVYTKAKVKMLCDMNNHFLMPDIPPFAGTPAREAEDEELKSIYSQDGQIRIGSLIGKNVEVKLNINSFARHLAILAATGSGKSNTVAVLSQRISELGGSVLIFDYHGEYYDSDIKNLNRIEPKLNPLYMTPREFSTLLEIRENAIIQYRILRRAFIKVTNGIREKLKEGQIPFSTLNSQFYELMKDELETQGNSDKKSSAKDEVLNKFEEFMDRYSNVIDLTSSDIIEKVKRGKVNVVSLTQLDEDSMDAVVSHYLRRILDSRKDFKRSKNSGLKFPIIAVIEEAHVFLSKNENTLTKYWASRIAREGRKFGVGLTIVSQRPKGLDENILSQMTNKIILKIIEPTDKKYILESSDNLSEDLAEQLSSLDVGEAIIIGKIVKLPAVVKIDMFEGKLLGSDPDMIGEWKKVEESEKIAKGFADFGTEIGD", "notes": "HerA ATPase, ORF SSO2251, Sulfolobus solfataricus strain P2; whole ORF amplified from genomic DNA with primers from the start codon to the stop codon, cloned BamHI/EcoRI into pet29a; 56 kDa as monomer; Hexamer in solution by gel filtration; Cloned at BamHI/EcoRI of pet29a, downstream of the vector's N-terminal S-tag; also called SSO2251; source: E. coli BL21-CodonPlus(DE3)-RIL, purified (heat …)"}, "B3": {"name": "70mer EMI fork (70leadCy5/70 lag emi) (mixed)", "DNA 1": "CGTGACTTGATGTTAACCCTAACCCTAAGAATTCGGCTTAAGTGAGTGTGAGGATATCATGTACGATAGC", "DNA 2": "CACACTCACTTAAGCCGAATTCTTAGGGTTAGGGTTAACATCAAGTCACG"}, "B4": {"name": "70mer bubble (70leadCy5/70 lag bubble) (mixed)", "DNA 1": "CGTGACTTGATGTTAACCCTAACCCTAAGAATTCGGCTTAAGTGAGTGTGAGGATATCATGTACGATAGC", "DNA 2": "GCTATCGTACATGATATCCTCACACTTTTTTTTTTTTTTTTTTTTGGGTTAGGGTTAACATCAAGTCACG"}}, "key": {"[1]": {"target": "B2", "assay": "SEC; Superdex 200 10/300 GL gel filtration; 800 μg HerA and 200 μg NurA, separately or mixed, incubated at 60°C for 20 min before gel filtration; fractions analysed by SDS-PAGE", "details": "both partners purified"}, "[2]": {"target": "the molecule itself", "assay": "SEC; Superdex 200 10/300 GL gel filtration; 800 μg HerA and 200 μg NurA, separately or mixed, incubated at 60°C for 20 min before gel filtration; fractions analysed by SDS-PAGE"}, "[3]": {"target": "T1, HerA (Sulfolobus solfataricus P2, UniProt Q97WG8 1-500)", "T1 sequence": "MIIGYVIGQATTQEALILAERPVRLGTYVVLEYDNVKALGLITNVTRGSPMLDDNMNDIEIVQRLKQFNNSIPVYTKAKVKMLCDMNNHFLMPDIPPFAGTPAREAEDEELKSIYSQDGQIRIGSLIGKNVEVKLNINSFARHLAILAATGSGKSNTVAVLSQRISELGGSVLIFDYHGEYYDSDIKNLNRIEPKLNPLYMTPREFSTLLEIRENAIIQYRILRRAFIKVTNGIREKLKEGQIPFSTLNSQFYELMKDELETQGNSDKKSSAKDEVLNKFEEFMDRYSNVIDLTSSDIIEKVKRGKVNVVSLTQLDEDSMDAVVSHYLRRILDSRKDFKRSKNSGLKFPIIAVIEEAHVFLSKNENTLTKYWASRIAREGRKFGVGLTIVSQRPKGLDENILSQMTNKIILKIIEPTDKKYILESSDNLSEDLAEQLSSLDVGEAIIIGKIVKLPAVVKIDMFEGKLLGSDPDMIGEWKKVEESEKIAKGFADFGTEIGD", "assay": "EMSA; 5 mM MgCl2, 2 mM EDTA; preferred substrate; EMSA: 20 mM HEPES/NaOH pH 7.5, 3.5 mM beta-mercaptoethanol, 50 mM NaCl, 5 mM MgCl2, 2 mM EDTA, 2 pmol DNA in 10 ul, 10 min at room temperature (NurA+HerA: 20 min at 70 C, then DNA 30 min at room temperature); 5% PAGE, 0.5x TBE", "details": "protein: recombinant, cloned BamHI/EcoRI in pET29a, so a vector-derived N-terminal extension is possible, chain copies: 6"}}}
{"binder": "B1", "values": [{"measurement": "binding result", "setting": "[1]", "value": "binds"}, {"measurement": "stoichiometry N", "setting": "[2]", "value": 2}]}
{"binder": "B2", "values": [{"measurement": "stoichiometry N", "setting": "[2]", "value": 6}]}
{"binder": "GACGTGGGCAAAGGTTCGTCAATGGACTGACAGCTGCATGG (ssDNA)", "note": "[ODN2 (single-stranded)]", "values": [{"measurement": "binding result", "setting": "[3]; label: 5' Cy5, single strand", "value": "binds"}]}
{"binder": "B3", "values": [{"measurement": "binding result", "setting": "[3]; label: 5' Cy5 on strand 1, 3' overhang 20 nt on strand 1", "value": "binds"}]}
{"binder": "B4", "values": [{"measurement": "binding result", "setting": "[3]; label: 5' Cy5 on strand 1, blunt ends, internal T-tract bubble", "value": "binds"}]}
